# Assay results reported in PMC11218781, “The heat shock factor 20-HSF4-cellulose synthase A2 module regulates heat stress tolerance in maize”.
# B1: ZmHSF4-P1 probe (dsDNA)
# DNA 1: GCCTTCCAGAACCTTCCTTTCCCGAAATAG
# DNA 2: CTATTTCGGGAAAGGAAGGTTCTGGAAGG
# B2: ZmCesA2-P2 probe (dsDNA)
# DNA 1: ATTTACTACTGAAATTTATAAGGATTTGCA
# DNA 2: TGCAAATCCTTATAAATTTCAGTAGTAAAT
# What was measured:
# ZmHSF20 [1] = biological target: T1, ZmHSF20 (Zea mays, UniProt K7U5Y9 1-318); experiment: EMSA; EMSA/Gel-Shift buffer (Beyotime GS009 kit), 4 °C, 1 h; salt and pH not stated; conditions: protein: recombinant; tags: His (pET28a); chain copies: 3; label: biotin; 5' overhang 1 nt on strand 1 as printed (reverse strand lacks the final C)
# T1 sequence (K7U5Y9 entry or part of it): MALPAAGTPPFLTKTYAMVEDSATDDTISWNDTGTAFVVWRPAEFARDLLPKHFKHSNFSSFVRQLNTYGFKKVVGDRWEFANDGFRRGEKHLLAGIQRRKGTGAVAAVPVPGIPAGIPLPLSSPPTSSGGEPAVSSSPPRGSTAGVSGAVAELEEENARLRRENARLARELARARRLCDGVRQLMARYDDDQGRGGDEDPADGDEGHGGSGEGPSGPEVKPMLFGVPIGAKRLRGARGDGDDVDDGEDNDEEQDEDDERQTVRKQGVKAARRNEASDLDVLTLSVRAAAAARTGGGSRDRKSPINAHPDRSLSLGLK
# ZmHSF20 [2] = biological target: T1, ZmHSF20; experiment: EMSA; unlabeled probe competes; EMSA/Gel-Shift buffer (Beyotime GS009 kit), 4 °C, 1 h; salt and pH not stated; conditions: protein: recombinant; tags: His (pET28a); chain copies: 3; label: biotin; blunt
Binder,binding result (ZmHSF20 [1]),binding result (ZmHSF20 [2])
B1,binds,
B2,,binds
